In the assay the target is C. trachomatis PmpD fragment D^269–918, His-tagged (C. trachomatis serovar E) (UniProt O84818). Description: native gel or EMSA; Blue Native-PAGE (Native PAGE Novex 3–12% Bis-Tris), 1 μg of each renatured His-tagged Pmp fragment alone; Coomassie staining and anti-His immunoblot. (Mobility shift assays separate free from complexed probe on a gel.)

The term stoichiometry N denotes the number of molecules, sites or subunits per partner or assembly. In turn, “C. trachomatis PmpD fragment D^269–918, His-tagged (from UniProt O84818 269-918) (domain or fragment)” came in with a stoichiometry N of 2.
